Here are results for 83 variants from the RNAGym collection of RNA variant scans (doi:10.1073/pnas.2313332121).

First the molecules themselves.
B1: TPR t1 (parent)
chain: GACCAAUCUGCCCUCAGAGCUCGAGAACAUCUUCGGAUGCAGAGGAGGCAGGCUUCGGUGGCGCGAUAGCGCCAACGUCCUCAACCUCCAAUGCAUCCCACCACAUGAUGAUGCCUGAAGAGCCUUGGUUUUUUG

In this series the parent is B1. Briefly: polymerase ribozyme fitness, log enrichment relative to wild type (log ratio); higher = more active; in vitro selection for triplet polymerase activity. The gist of the method:
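Each subunit of a heterodimeric triplet polymerase ribozyme was represented by a PCR-built, transcribed mutant library that underwent triplicate single-round in vitro selection with frozen incubation at −7 °C. Extended constructs were recovered by gel excision, streptavidin-bead capture and RT-PCR, and Illumina sequencing of input and output libraries kept genotypes with ≥10 input reads and ≥1 read per output. Fitness is the logarithm of genotype enrichment relative to wild-type enrichment, from inverse-variance-weighted replicate averages, with a logarithm base of 2.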
As to C11G U55A U59G U106G G117C, the “polymerase ribozyme fitness (log ratio)” value is -4.89. Consider C11G A83U U126G, for which the “polymerase ribozyme fitness (log ratio)” value was -0.958.

With C11G G42U C104A A121C, the “polymerase ribozyme fitness (log ratio)” value is -3.09. For C11G C49G C70U C88G A111U G127C, the “polymerase ribozyme fitness (log ratio)” value is -5.65. C11G C85G G117A: the “polymerase ribozyme fitness (log ratio)” value is -1.6. With C11G G135U, the “polymerase ribozyme fitness (log ratio)” value was -0.0424. To C11G U21A belongs -0.298; to C11G G39U C56U, -0.805. In the case of C11G G17U A91C G117A, the “polymerase ribozyme fitness (log ratio)” value was -1.55. The same measure for C11G C64U G117C: -1.98; for C11G C79A G120C: 1.11. Turning to C11G C64U A84U, the “polymerase ribozyme fitness (log ratio)” value was -0.0856.

As to C11U C28G C85A C104U G113C, the “polymerase ribozyme fitness (log ratio)” value was -6.42. The same measure for C11U A24G G45U A91G: -5.06.

For C11G C86U, the “polymerase ribozyme fitness (log ratio)” value is -0.354. For C11G G17C C53U C79U U129G, the “polymerase ribozyme fitness (log ratio)” value was -3.84.

As for C11G A41C C56U C72U G93A C123G G135U, the “polymerase ribozyme fitness (log ratio)” value is -4.47. Turning to C11U C22G A83C, the “polymerase ribozyme fitness (log ratio)” value is -4.06. Regarding C11G G44C C86G U126A, the “polymerase ribozyme fitness (log ratio)” value was -2.2.

For the variant C11G C15A G61A U125G, the “polymerase ribozyme fitness (log ratio)” value was -0.186.

As for C11G A111G, the “polymerase ribozyme fitness (log ratio)” value came to 1.17. Consider C11G A111U, for which the “polymerase ribozyme fitness (log ratio)” value is -2.19. Turning to C11G U21A C53G C114A, the “polymerase ribozyme fitness (log ratio)” value stood at 0.189.

On to C11G G19A C53U C62U A111G, for which the “polymerase ribozyme fitness (log ratio)” value was -1. To C11G C49G A90U C124G U129C belongs -2.5; to C11G A37G C40G C72A C101U C123A, 0.0924. The same measure for C11G U54A G93C: -0.558.

For the variant C11G C97A, the “polymerase ribozyme fitness (log ratio)” value is -4.05. For C11G A108C, the “polymerase ribozyme fitness (log ratio)” value was -4.07.

As for C11U A26U U55C A75G A83C, the “polymerase ribozyme fitness (log ratio)” value is -3.24.

C11G U96A: the “polymerase ribozyme fitness (log ratio)” value was -0.629. Regarding C11G C13A A16U C79U, the “polymerase ribozyme fitness (log ratio)” value was -2.88. The same measure for C11G A46G U106G G128U: -2.63; for C11G G110C: -3.47.

In the case of C11G G110U, the “polymerase ribozyme fitness (log ratio)” value is -0.409. Turning to C11G G110A, the “polymerase ribozyme fitness (log ratio)” value is -1.04.

As to C11U A24U C28G C62G A83G G113U U133C, the “polymerase ribozyme fitness (log ratio)” value was -6.38.

As to C11G G17A C72A C124U, the “polymerase ribozyme fitness (log ratio)” value is -3.65. With C11G C28A U112A, the “polymerase ribozyme fitness (log ratio)” value was -1.33.

C11G G122A C124G: the “polymerase ribozyme fitness (log ratio)” value amounted to 1.83. To C11G C15A A29U G45C G77A G120A G128U belongs -5.34. For C11U A16U U54G U59C, the “polymerase ribozyme fitness (log ratio)” value is -3.88. To C11G C12U C53U U54A C86U A90G U96A C101U belongs -2.39; to C11U A29C C72G U112A G135U, -2.74. Consider C11U A27U C62U C88G C97G C98U C99U C114G C124A G128A, for which the “polymerase ribozyme fitness (log ratio)” value was -7.25.

Consider C11G C72G A91C, for which the “polymerase ribozyme fitness (log ratio)” value is -0.65. To C11G C13A belongs -2.58; to C11G C15A U59A C73A U125A, -1.02; to C11G C40A C99U, -4.65. To C11G G17A C72U C101U belongs -2.99; to C11U C22U C40G, -4.75. C11G G36A G127A: the “polymerase ribozyme fitness (log ratio)” value was -2.95. The same measure for C11G C88A: -0.146; for C11G C40U C49U U55G U130A U132A: -1.35. Regarding C11G C12G C49U U55G A91G, the “polymerase ribozyme fitness (log ratio)” value is -2.61.

For the variant C11G G35A G69C C98U, the “polymerase ribozyme fitness (log ratio)” value was -1.46. With C11G G17C U55G C73U, the “polymerase ribozyme fitness (log ratio)” value was -3.54. To C11U A108G A118U belongs -3.04; to C11G C49A, 0.121. The same measure for C11G C49U: 0.783; for C11G G58C C97A C104A: -4.9; for C11G G122U: 0.995. On to C11G G44A C56G C82G C88U, for which the “polymerase ribozyme fitness (log ratio)” value is -2.81.

As for C11G A37U G60U G77C, the “polymerase ribozyme fitness (log ratio)” value was -1.22.

As for C11G G57U G120A, the “polymerase ribozyme fitness (log ratio)” value was determined as 1.4. To C11G G52C G117A belongs -1.05; to C11U C15A A26G C53G G61U G120C, -4.04.

As to C11G G107A, the “polymerase ribozyme fitness (log ratio)” value was -4.44.

Turning to C11U A27U C72U U78G A121U, the “polymerase ribozyme fitness (log ratio)” value was -0.173. To C11G A105U U112A A119G G120A G122A belongs -0.827. The same measure for C11G U92G: -2.49; for C11G G48A C82U G122U: 0.0866; for C11U C13A C22U U55G: -4.69.

C11G C15A A95U U130A: the “polymerase ribozyme fitness (log ratio)” value was -2.76. The same measure for C11G A29G G61U C94G: -2.6; for C11G C64U C98G U106C: -6.08; for C11G U21A C49U G117C: -4.04.

C11U C15G U59C U112A: the “polymerase ribozyme fitness (log ratio)” value is -4.15. As to C11G C53G C70U U96G A105C U112G, the “polymerase ribozyme fitness (log ratio)” value was -7.25. To C11G C53A G61C belongs -4.59. To C11G A50G C97G belongs -2.97; to C11G C114U, -0.754. C11G C114G: the “polymerase ribozyme fitness (log ratio)” value is -2.38.
